Data taken from patent US20210332146A1 (ACADEMIA SINICA, published 2021).
Blank lines part the entries; values can stand above or below the binder they belong to.

Assays:
[1] = target: T1, FcγRIIIA recombinant protein (UniProt P08637 17-208, limits assumed); assay: SPR, Biacore T200; antibody captured on anti-human Fab chip, FcγRIIIA injected (12.5-200 nM), single cycle kinetics, 1:1 model; Rituxan reference, not glycoengineered; upper end of the range
T1 construct: also called FcRIIIA
Experimental: (§1) FcγRIIIA was transfected into HEK-293 cell line to express recombinant protein. The secreted FcγRIIIA recombinant protein was purified and then diluted to serial concentration in HBS-EP buffer (200 nM, 100 nM, 50 nM, 25 nM, and 12.5 nM). […] A serial titration of FcγRIIIA was injected and bound at the flow rate of […]. Single cycle kinetics data was fitted into 1:1 binding model using Biacore T200 evaluation software to measure the equilibrium constant (Ka/Kd).

[2] = target: T2, CD20 (human, UniProt P11836 1-297); assay: flow cytometry on SUDHL4 (SU-DHL4) cells, MFI against antibody concentration
T2 construct: whole, on cells; Target on B-lymphoma cells in flow cytometry; also called CD20 antigen; B-lymphocyte-restricted differentiation antigen
T2 sequence (looked up): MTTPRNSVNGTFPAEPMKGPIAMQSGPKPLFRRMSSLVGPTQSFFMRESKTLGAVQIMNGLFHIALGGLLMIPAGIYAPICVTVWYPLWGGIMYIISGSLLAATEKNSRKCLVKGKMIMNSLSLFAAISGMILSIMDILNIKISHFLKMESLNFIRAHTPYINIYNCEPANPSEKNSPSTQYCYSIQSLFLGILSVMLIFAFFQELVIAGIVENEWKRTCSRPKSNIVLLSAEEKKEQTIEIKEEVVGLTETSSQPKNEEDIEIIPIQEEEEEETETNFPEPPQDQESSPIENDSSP

[3] = target: T1, FcγRIIIA recombinant protein; assay: SPR, Biacore T200; antibody captured on anti-human Fab chip, FcγRIIIA injected (12.5-200 nM), single cycle kinetics, 1:1 model
Experimental: as §1

[4] = target: T2, CD20; assay: flow cytometry on Ramos cells (CD20+ B lymphoma), MFI against antibody concentration
Experimental: Binding to B-lymphoma cells. The binding of the antibodies was investigated in CD20⁺ B lymphoma cell lines (Ramos and SKW6.4) and analyzed on flow cytometry. The cells in PBS containing 1% fetal bovine serum at 2×10⁵/well on microplate were incubated on ice for 1 hr with antibodies of interest at different concentrations. The cells are washed, re-suspended in the PBS buffer, and incubated with the detecting goat anti-hIgG-Fcγ-PE on ice for 30 min. The cells are washed and subjected to analysis on FACS.

[5] = target: T1, FcγRIIIA recombinant protein; assay: SPR as above; category letter explained in the note of Table 4
Experimental: as §1

[6] = target: T1, FcγRIIIA recombinant protein; assay: >
Experimental: as §1

T1 sequence (P08637 17-208 limits assumed): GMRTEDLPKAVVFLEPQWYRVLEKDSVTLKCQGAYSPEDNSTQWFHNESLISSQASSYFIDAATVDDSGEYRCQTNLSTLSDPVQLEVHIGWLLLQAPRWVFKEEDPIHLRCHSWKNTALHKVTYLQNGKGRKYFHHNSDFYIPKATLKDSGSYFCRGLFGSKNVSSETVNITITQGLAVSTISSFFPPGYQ

B1: Rituximab (antibody, human IgG1, kappa)
heavy: not shown
light: QIVLSQSPAILSASPGEKVTMTCRASSSVSYIHWFQQKPGSSPKPWIYATSNLASGVPVRFSGSGSGTSYSLTISRVEAEDAATYYCQQWTSNPPTFGGGTKLEIKRTVAAPSVFIFPPSDEQLKSGTASVVCLLNNFYPREAKVQWKVDNALQSGNSQESVTEQDSKDSTYSLSSTLTLSKADYEKHKVYACEVTHQGLSSPVTKSFNRGEC
modifications: heterogeneous N-glycans at Asn-297 of the Fc (more than 50 glycoforms; greater than 90% of N-glycans are fucosylated)
notes: Chimeric anti-CD20 IgG made in CHO cells, purchased from Genentech; DrugBank DB00073; also called Rituxan; RTX
Kd [1]: ≤ 300 nM
EC50 (read off the curve) [2]: ~0.6 µg/mL
Kd [3]: 100 nM
EC50 (read off the curve) [4]: ~0.6 µg/mL

B3: anti-CD20 GAb101 (antibody, human IgG1, kappa)
heavy: not shown
light: B1 light
modifications: homogeneous N-glycan at Asn-297, no core fucose: glycan-101 (Sia2Gal2GlcNAc2Man3GlcNAc) transferred onto the GlcNAc of GAb201; 2,6 sialic acid linkage
notes: the text gives them the other way round
Fold (increase against Rituxan) [6]: 30 fold
EC50 (read off the curve) [2]: ~0.7 µg/mL

B4: anti-CD20 GAb102 (antibody, human IgG1, kappa)
heavy: not shown
light: B1 light
modifications: homogeneous N-glycan at Asn-297, no core fucose: glycan-102 (SiaGal2GlcNAc2Man3GlcNAc) transferred onto the GlcNAc of GAb201
notes: as for B3
Fold (increase against Rituxan) [5]: > 30 fold

B5: anti-CD20 GAb105 (antibody, human IgG1, kappa)
heavy: not shown
light: B1 light
modifications: homogeneous N-glycan at Asn-297, no core fucose: glycan-105 (GalGlcNAc2Man3GlcNAc) transferred onto the GlcNAc of GAb201
notes: as for B3
Fold (increase against Rituxan) [5]: > 30 fold

The next lines start with the values.

Fold (increase against Rituxan) [5]: > 30 fold
B2: anti-CD20 GAb104 (antibody, human IgG1, kappa)
heavy: not shown
light: B1 light
modifications: homogeneous N-glycan at Asn-297, no core fucose: glycan-104 (Gal2GlcNAc2Man3GlcNAc) transferred onto the GlcNAc of GAb201
notes: as for B3

Kd [3]: 7 to 30 nM
B6: anti-CD20 GAb106 (antibody, human IgG1, kappa)
heavy: not shown
light: B1 light
modifications: homogeneous N-glycan at Asn-297, no core fucose: glycan-106 (GalGlcNAcMan3GlcNAc) transferred onto the GlcNAc of GAb201
notes: as for B3
